pKd data for four molecules are collected here from publication PMC9482650, “Quantitative fragmentomics allow affinity mapping of interactomes” (Nature Communications, 2022).

Substitutions are numbered along the chain they refer to.

Targets include LNX1_3, Q8TBB1; NHERF4_2, Q86UT5; LIMK2, P53671; Inadl_3, Q8NI35; FRMPD2_1, Q68DX3; NHERF4_4, Q86UT5; DLG4_2, P78352; IL16_1, Q14005; LAP2, Q96RT1.
What all share (assay): holdup assay
Common to all, as to parameters: key: below the threshold = too weak to quantify, mostly under pKd 3.1 to 4

The next test addresses T1, PDZD2_2, O15018.
T1 sequence (O15018 329-429, limits assumed, looked up): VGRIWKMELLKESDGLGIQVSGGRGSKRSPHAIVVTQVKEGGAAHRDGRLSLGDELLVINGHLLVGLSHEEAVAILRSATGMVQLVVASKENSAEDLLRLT

In the next test the target is T2, NHERF3_3, Q5T2W1.
T2 sequence (Q5T2W1 238-333, limits assumed, looked up): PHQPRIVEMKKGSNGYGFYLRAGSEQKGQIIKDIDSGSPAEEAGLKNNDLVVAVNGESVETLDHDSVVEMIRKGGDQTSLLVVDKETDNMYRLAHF

The target in the next test is T3, SHANK1, Q9Y566.
T3 sequence (Q9Y566 658-767, limits assumed, looked up): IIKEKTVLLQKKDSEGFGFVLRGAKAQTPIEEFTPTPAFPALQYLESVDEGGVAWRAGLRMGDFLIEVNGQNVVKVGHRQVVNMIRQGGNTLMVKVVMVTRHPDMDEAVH

In the next test the target is T4, FRMPD1, Q5SYB0.
T4 sequence (Q5SYB0 52-145, limits assumed, looked up): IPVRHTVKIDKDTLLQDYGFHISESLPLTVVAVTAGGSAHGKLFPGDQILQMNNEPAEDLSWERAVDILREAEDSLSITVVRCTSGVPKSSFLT

For a further test, the target named is T5, APBA1_2, Q02410.
T5 sequence (Q02410 742-832, limits assumed, looked up): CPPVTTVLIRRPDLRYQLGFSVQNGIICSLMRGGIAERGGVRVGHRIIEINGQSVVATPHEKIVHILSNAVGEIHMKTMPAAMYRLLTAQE

A further test deals with T6, CARD11, Q9BXL7.
T6 sequence (Q9BXL7 662-765, limits assumed, looked up): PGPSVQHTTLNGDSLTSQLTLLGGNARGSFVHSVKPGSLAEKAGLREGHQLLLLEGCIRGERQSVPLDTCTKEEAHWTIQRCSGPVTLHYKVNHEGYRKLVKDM

The target in the next test is T7, DFNB31_2, Q9P202.
T7 sequence (Q9P202 274-371, limits assumed, looked up): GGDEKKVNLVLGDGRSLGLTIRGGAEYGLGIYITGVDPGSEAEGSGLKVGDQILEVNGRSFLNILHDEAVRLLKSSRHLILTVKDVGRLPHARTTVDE

For the next test, the target named is T8, MPP6, Q9NZW5.
T8 sequence (Q9NZW5 125-219, limits assumed, looked up): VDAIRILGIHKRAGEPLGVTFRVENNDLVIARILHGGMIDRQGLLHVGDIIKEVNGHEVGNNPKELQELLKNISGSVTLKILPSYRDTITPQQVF

The next test concerns the target T9, APBA2_2, Q99767.
T9 sequence (Q99767 654-744, limits assumed, looked up): T5 sequence (Q02410 742-832, limits assumed, looked up) with R10K, R15K, P59A, H65Q, I66A, A70S, Y84F, A89G

The target in the next test is T10, MPDZ_10, O75970.
T10 sequence (O75970 1624-1722, limits assumed, looked up): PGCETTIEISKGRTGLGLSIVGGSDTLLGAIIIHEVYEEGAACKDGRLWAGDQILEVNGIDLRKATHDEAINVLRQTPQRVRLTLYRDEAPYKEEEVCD

Another test concerns the target T11, LNX2_3, Q8N448.
T11 sequence (Q8N448 463-564, limits assumed, looked up): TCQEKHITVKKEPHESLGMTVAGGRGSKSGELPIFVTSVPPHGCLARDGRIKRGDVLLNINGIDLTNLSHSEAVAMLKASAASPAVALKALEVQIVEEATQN

In a further test the target is T12, MPP7, Q5T2T1.
T12 sequence (Q5T2T1 134-230, limits assumed, looked up): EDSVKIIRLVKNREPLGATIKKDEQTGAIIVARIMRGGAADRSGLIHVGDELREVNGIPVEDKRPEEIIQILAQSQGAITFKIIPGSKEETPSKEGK

Another test concerns the target T13, TX1BP3, O14907.
T13 sequence (O14907 10-122, limits assumed, looked up): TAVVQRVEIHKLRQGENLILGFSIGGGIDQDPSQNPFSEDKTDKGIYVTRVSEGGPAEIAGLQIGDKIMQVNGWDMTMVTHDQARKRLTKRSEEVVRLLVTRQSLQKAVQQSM

Another test concerns the target T14, NHERF3_4, Q5T2W1.
T14 sequence (Q5T2W1 373-468, limits assumed, looked up): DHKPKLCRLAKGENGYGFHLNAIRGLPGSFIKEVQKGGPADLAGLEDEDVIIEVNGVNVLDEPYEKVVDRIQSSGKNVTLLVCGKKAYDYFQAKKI

The mark [1] stands for this setting: plain residues with an end cap or a label only (N-terminal biotin on a linker: ado-ado).
Where [2] appears, read: plain residues with an end cap or a label only (N-terminal biotin on a linker: ttds).

Broadly, the pKd is the Kd on a negative log10 scale, so that one unit is a factor of ten.

NHERF4_2, Q86UT5, sequence (Q86UT5 220-308): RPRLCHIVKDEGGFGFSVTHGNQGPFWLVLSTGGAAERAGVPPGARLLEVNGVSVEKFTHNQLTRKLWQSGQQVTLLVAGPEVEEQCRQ
LAP2, Q96RT1, sequence (Q96RT1 other isoform, or with tags, fused parts or gaps): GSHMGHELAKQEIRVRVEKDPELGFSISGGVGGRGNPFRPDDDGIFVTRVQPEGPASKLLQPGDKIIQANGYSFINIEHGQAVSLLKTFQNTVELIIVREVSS
FRMPD2_1, Q68DX3, sequence (Q68DX3 770-861): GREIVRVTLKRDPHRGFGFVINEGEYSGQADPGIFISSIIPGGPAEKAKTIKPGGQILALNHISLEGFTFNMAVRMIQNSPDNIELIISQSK
NHERF4_4, Q86UT5, sequence (Q86UT5 464-550): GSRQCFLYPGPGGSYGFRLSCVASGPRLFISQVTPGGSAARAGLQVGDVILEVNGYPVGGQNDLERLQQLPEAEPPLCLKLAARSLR
LNX1_3, Q8TBB1, sequence (Q8TBB1 500-596): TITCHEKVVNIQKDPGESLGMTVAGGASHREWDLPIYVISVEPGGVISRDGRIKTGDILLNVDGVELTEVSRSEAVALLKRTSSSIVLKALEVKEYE
IL16_1, Q14005, sequence (Q14005 210-306): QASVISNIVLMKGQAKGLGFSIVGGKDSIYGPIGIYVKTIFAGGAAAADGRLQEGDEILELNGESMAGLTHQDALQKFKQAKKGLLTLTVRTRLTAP
DLG4_2, P78352, sequence (P78352 155-259): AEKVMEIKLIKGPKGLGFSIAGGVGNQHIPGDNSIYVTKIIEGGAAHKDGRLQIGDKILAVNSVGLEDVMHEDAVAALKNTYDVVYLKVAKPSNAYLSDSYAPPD
Inadl_3, Q8NI35, sequence (Q8NI35 359-469): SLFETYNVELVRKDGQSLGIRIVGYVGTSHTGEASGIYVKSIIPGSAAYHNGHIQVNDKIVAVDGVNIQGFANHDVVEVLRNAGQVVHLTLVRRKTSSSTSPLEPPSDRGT
LIMK2, P53671, sequence (P53671 143-248): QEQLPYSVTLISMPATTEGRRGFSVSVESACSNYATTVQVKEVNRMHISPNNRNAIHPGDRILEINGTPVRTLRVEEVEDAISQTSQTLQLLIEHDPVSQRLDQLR

As to GFGEERESIL [KIDINS220, Q9ULH0], the negative-log Kd (pKd) with PDZD2_2, O15018 (setting [1]) is 4.65; with NHERF3_3, Q5T2W1 (setting [1]), “below the threshold”; in the test with SHANK1, Q9Y566 (setting [1]), 3.87; with FRMPD1, Q5SYB0 (setting [1]) it was “below the threshold”; in the test with APBA1_2, Q02410 (setting [1]), “below the threshold”; with LNX1_3, Q8TBB1 (setting [1]), “below the threshold”. The pKd entry with NHERF4_2, Q86UT5 (setting [1]) was “below the threshold”; with LIMK2, P53671 (setting [1]), “below the threshold”; in the test with Inadl_3, Q8NI35 (setting [1]) it was 3.65; with CARD11, Q9BXL7 (setting [1]), “below the threshold”; in the test with DFNB31_2, Q9P202 (setting [1]) it was “below the threshold”; in the test with FRMPD2_1, Q68DX3 (setting [1]) it was “below the threshold”. Moreover, the pKd entry is given as “below the threshold” with MPP6, Q9NZW5 (setting [1]); “below the threshold” with APBA2_2, Q99767 (setting [1]); “below the threshold” in the test with MPDZ_10, O75970 (setting [1]); “below the threshold” with LNX2_3, Q8N448 (setting [1]); “below the threshold” with NHERF4_4, Q86UT5 (setting [1]); “below the threshold” with MPP7, Q5T2T1 (setting [1]). Also, the negative logarithm of the Kd (pKd) in the test with DLG4_2, P78352 (setting [1]) is 3.5; in the test with IL16_1, Q14005 (setting [1]), 4.48; with LAP2, Q96RT1 (setting [1]), “below the threshold”; with TX1BP3, O14907 (setting [1]), 3.73; in the test with NHERF3_4, Q5T2W1 (setting [1]), “below the threshold”.

For the molecule VNKVWDQSSV [CIT, O14578], the pKd was 4.86 with PDZD2_2, O15018 (setting [2]); “below the threshold” in the test with NHERF3_3, Q5T2W1 (setting [2]); 3.57 with SHANK1, Q9Y566 (setting [2]); “below the threshold” with FRMPD1, Q5SYB0 (setting [2]); 3.49 in the test with APBA1_2, Q02410 (setting [2]); “below the threshold” in the test with LNX1_3, Q8TBB1 (setting [2]). Besides, the pKd result in the test with NHERF4_2, Q86UT5 (setting [2]) is “below the threshold”; with LIMK2, P53671 (setting [2]), “below the threshold”; with Inadl_3, Q8NI35 (setting [2]), “below the threshold”; in the test with CARD11, Q9BXL7 (setting [2]), “below the threshold”; in the test with DFNB31_2, Q9P202 (setting [2]), “below the threshold”; with FRMPD2_1, Q68DX3 (setting [2]) it was “below the threshold”. The pKd entry with MPP6, Q9NZW5 (setting [2]) was “below the threshold”; with APBA2_2, Q99767 (setting [2]), “below the threshold”; in the test with MPDZ_10, O75970 (setting [2]) it was “below the threshold”; with LNX2_3, Q8N448 (setting [2]), “below the threshold”; with NHERF4_4, Q86UT5 (setting [2]), “below the threshold”; with MPP7, Q5T2T1 (setting [2]), “below the threshold”. Also, the pKd entry in the test with DLG4_2, P78352 (setting [2]) was “below the threshold”; with IL16_1, Q14005 (setting [2]), 3.68; with LAP2, Q96RT1 (setting [2]), 4.04; in the test with TX1BP3, O14907 (setting [2]), 6.25; in the test with NHERF3_4, Q5T2W1 (setting [2]), “below the threshold”.

For the molecule SEKHFRETEV [HTLV1-TAX1, P03409], the pKd is 4.44 with PDZD2_2, O15018 (setting [2]); “below the threshold” with NHERF3_3, Q5T2W1 (setting [2]); “below the threshold” with SHANK1, Q9Y566 (setting [2]); “below the threshold” in the test with FRMPD1, Q5SYB0 (setting [2]); 3.56 in the test with APBA1_2, Q02410 (setting [2]); 3.64 in the test with LNX1_3, Q8TBB1 (setting [2]). The negative-log Kd (pKd) result with NHERF4_2, Q86UT5 (setting [2]) was “below the threshold”; with LIMK2, P53671 (setting [2]) it was “below the threshold”; with Inadl_3, Q8NI35 (setting [2]) it was 3.69; with CARD11, Q9BXL7 (setting [2]), “below the threshold”; with DFNB31_2, Q9P202 (setting [2]) it was 3.71; with FRMPD2_1, Q68DX3 (setting [2]), 3.75. Moreover, the pKd result in the test with MPP6, Q9NZW5 (setting [2]) is listed as “below the threshold”; with APBA2_2, Q99767 (setting [2]), “below the threshold”; in the test with MPDZ_10, O75970 (setting [2]) it was “below the threshold”; with LNX2_3, Q8N448 (setting [2]) it was “below the threshold”; in the test with NHERF4_4, Q86UT5 (setting [2]), “below the threshold”; in the test with MPP7, Q5T2T1 (setting [2]), “below the threshold”. Besides, the negative logarithm of the Kd (pKd) with DLG4_2, P78352 (setting [2]) is 5.51; in the test with IL16_1, Q14005 (setting [2]), 4.44; in the test with LAP2, Q96RT1 (setting [2]) it was 4.99; with TX1BP3, O14907 (setting [2]) it was 6.2; with NHERF3_4, Q5T2W1 (setting [2]), “below the threshold”.

As to PKRPFVESNV [TANC2, Q9HCD6], the pKd was 4.52 with PDZD2_2, O15018 (setting [2]); “below the threshold” with NHERF3_3, Q5T2W1 (setting [2]); “below the threshold” with SHANK1, Q9Y566 (setting [2]); “below the threshold” with FRMPD1, Q5SYB0 (setting [2]); “below the threshold” with APBA1_2, Q02410 (setting [2]); “below the threshold” with LNX1_3, Q8TBB1 (setting [2]). Besides, the pKd result with NHERF4_2, Q86UT5 (setting [2]) is reported as “below the threshold”; with LIMK2, P53671 (setting [2]), “below the threshold”; with Inadl_3, Q8NI35 (setting [2]) it was “below the threshold”; with CARD11, Q9BXL7 (setting [2]), “below the threshold”; with DFNB31_2, Q9P202 (setting [2]), “below the threshold”; with FRMPD2_1, Q68DX3 (setting [2]), “below the threshold”. Besides, the negative-log Kd (pKd) result was “below the threshold” with MPP6, Q9NZW5 (setting [2]); “below the threshold” with APBA2_2, Q99767 (setting [2]); 3.51 with MPDZ_10, O75970 (setting [2]); “below the threshold” with LNX2_3, Q8N448 (setting [2]); “below the threshold” with NHERF4_4, Q86UT5 (setting [2]); “below the threshold” with MPP7, Q5T2T1 (setting [2]). The negative-log Kd (pKd) in the test with DLG4_2, P78352 (setting [2]) is 4.6; with IL16_1, Q14005 (setting [2]), 4.66; in the test with LAP2, Q96RT1 (setting [2]) it was 4.74; with TX1BP3, O14907 (setting [2]) it was 5.9; with NHERF3_4, Q5T2W1 (setting [2]), “below the threshold”.
